Laboratory results published in US20080113907A1, “Uses Of Galectin-2” (Charite-Universitat-Smedizin Berlin, priority 2004, published 2008).

What was measured:
caspase-3 = assay: Caspase activity by flow cytometry; format: cell-based, human; conditions: anti-CD3 activated PBT, 50 μg/ml, 24 h
Protocol: To measure caspase activity, 5×10^5 PBT were incubated in the presence or absence of 50 μg/ml galectin-2 together with derivates of the PE-labelled affinity purified anti-caspase-3 Ab (BD Pharmingen), the carboxyfluorescein-labelled caspase-8 inhibitor FAM-LETD-fmk or caspase-9 inhibitor FAM-LEHD-fmk (both from Biocharta, Hamburg, Germany), all binding irreversibly to activated caspase-3, -8 or -9, respectively. Cells were than analyzed by flow cytometry (FACS-Calibur, BD) and the increase of caspase activity determined after proper gating in correlation to untreated cells.

T cells = assay: Binding of biotinylated Gal-2 to T lymphocytes (flow cytometry); design: species or system human
Protocol: To measure Gal-2 binding to T lymphocytes, aliquots of cell suspensions were kept as controls or stimulated for 1, 6, 12, 24, 48, and 72 h with anti-CD3 mAb or PMA and PHA and incubated in the presence of 5 μg/ml biotin-labeled Gal-2. Cells were then harvested, washed and stained with anti-CD3-FITC mAb and APC-labeled streptavidin (Biosource) followed by flow cytofluorometric analysis. Cells cultured in the absence of biotin-labeled Gal-2 and stained with FITC-labeled mouse IgG (BD Pharmingen) or APC-labeled streptavidin served as isotype controls. Each analysis was performed on at least 20,000 events.

chronic DSS colitis = assay: Therapy of chronic DSS colitis, disease activity index (DAI); format: in vivo, Balb/c mice; conditions: control 5.3 ± 0.7
From the text: Colitis was induced in 30 8- to 10-week-old, female, Balb/c mice (Jackson Laboratories, Bar Harbor, Me.) by adding 5% DSS (Sigma Chemical Co., St. Louis, Mo.) (Dextran Sodiumsulfate (DSS) to their drinking water for the period of seven days and allowing them to drink ad libitum. At the 8th day DSS administration was stopped for another seven days. This scheme of DSS administration for seven days followed by a period of seven days pure water administration was repeated as shown in FIG. 15B. At the 29th day 20 mice were treated with Galectin-2 intraperitoneally (i.p.) parallel to DSS administration. In one trial of this treatment a group of 10 mice were treated with 2 mg/kg Galectin-2 once a day and in another trial the same total dose was distributed in two administrations for a group of ten mice, e.g. 10 mice were treated with respectively 1 mg/kg Galectin-2 twice a day. Parallel a group of 10 mice was treated with 0,9% NaCl instead of Galectin-2 as control. At the 8th day the Galectin-2 treatment was stopped. Parallel to the treatment mice were weighed and inspected for diarrhea and rectal bleeding. After stopping the treatment mice were killed, their entire colon was resected, and its length was measured and weighed. The disease activity index (DAI; i.e., the combined score of weight loss and bleeding) was determined according to a standard scoring system […]

[1] = test system: acute and chronic DSS colitis; assay: Dose finding studies in acute and chronic DSS colitis; format: in vivo, BALB/c mice
Protocol: Acute and chronic colitis were induced in BALB/c mice by adding 5% DSS to the drinking water for 7 days to induce acute colitis, or for 3 cycles of 7 days DSS following 7 days without DSS to induce chronic colitis, respectively (Siegmund B, Lehr H A, Fantuzzi G. Leptin: a pivotal mediator of intestinal inflammation in mice. Gastroenterology 2002; 122: 2011-2025). Animals with acute or chronic colitis were treated i.p. with either physiological NaCl as control or Gal-2 once daily (od), twice daily (bid) or three time daily (tid) for 10 days. In one experimental protocol Gal-2 and NaCl 0.9% were injected subcutaneously. Gal-2 doses ranging from 0.5-2 mg/kg body weight in individual doses and total daily doses of 3 mg/kg body weight and different dosing regimens were evaluated. Tacrolimus (1 mg/kg bodyweight), Infliximab (10 mg/kg bodyweight), prednisolone (1 mg/kg bodyweight), all well-known modulators of experimental colitis and human inflammatory bowel diseases were used as positive controls.
PBT were isolated, stimulated with CD3 for 3 days and cytokine secretion was determined by cytometric bead array (CBA) analysis as described previously (Sturm A, Rilling K, Baumgart D C, Gargas K, Abou-Ghazale T, Raupach B, Eckert J, Schumann R R, Enders C, Sonnenborn U, Wiedenmann B, Dignass A U. Escherichia coli Nissle 1917 distinctively modulates T-cell cycling and expansion via toll-like receptor 2 signaling. Infect.Immun. 2005; 73: 1452-1465.) Mucosal recruitment of granulocytes was assessed by Myeloperoxidase activity (Rath H C, Herfarth H H, Ikeda J S, Grenther W B, Hamm T E, Jr., Balish E, Taurog J D, Hammer R E, Wilson K H, Sartor R B. Normal Luminal Bacteria, Especially Bacteroides Species, Mediate Chronic Colitis, Gastritis, and Arthritis in HLA-B27/Human beta 2 Microglobulin Transgenic Rats. Journal of Clinical Investigation 1996; 98: 945-953).

PBT = assay: Extent of apoptosis and necrosis (annexin-V, PI, DAPI staining); format: cell-based, human
Protocol: Apoptosis was determined by monitoring fragmentation of nuclear DNA and access of annexin V to c ell surface phosphatidylserine (PS). To detect fragmentation of nuclear DNA, T cells were cultured in the presence and absence of the respective galectins, with or without blocking antibodies or further activation for 48 h. Thereafter, cells were fixed in 0.2 ml of 37% formaldehyde for 10 min at room temperature. The cells were then treated with 1 ml PBS containing 0.2% Nonidet P-40 (Sigma-Aldrich) for 2 min at room temperature and then rinsed once in PBS. The apoptotic cells were detected by staining of nuclear DNA with 4,6-diamino-2-phenylindole (DAPI) (Calbiochem). DAPI was added at a concentration of 0.2 ng/ml of PBS and cells were incubated at room temperature for 20 min in this solution. Cells were rinsed twice in PBS and the coverslips were maintained cell side down on a microscope slide and analyzed using a Zeiss Axiovert 135M microscope (Carl Zeiss, Oberkochen, Germany). To detect early phases of apoptosis, access to PS was measured. Cells were cultured as described, harvested at the respective time points, stained with FITC-labeled annexin-V and PI and analyzed by flow cytometry using the CellQuest software program (BD Pharmingen). A minimum of 15,000 cells was monitored in each case.

B1: galectin-2: β-galactoside binding lectin, non-covalent dimer with subunits of about 14 kDa; recombinant human or rat (SEQ ID NO:1, 2) (protein)
chain: MAGELEVKNMDMKPGSTLKITGSIADGTDGFVINLGQGTDKLNLHFNPRFSESTIVCNSLDGSNWGQEQREDHLCFSPGSEVKFTVTFESDKFKVKLPDGHELTFPNRLGHSHLSYLSVRGGFNMSSFKLKE
Q: What does the source list for B1?
A: caspase-3 activity (caspase-3): significant increase; time bound to T cells (T cells): more than 72 hours; binding to T cells after stimulation (T cells; PMA/PHA or anti-CD3 antibody): increase in cell staining; binding to T cells (T cells; unstimulated T cells): bound to unstimulated T cells in a β-galactoside-specific manner; DAI (disease activity index) (chronic DSS colitis; 1 × 2 mg/kg i.p. once a day): 4.5 ± 0.6,; DAI (disease activity index) (chronic DSS colitis; 2 × 1 mg/kg i.p. twice a day): 2.8 ± 0.3,; effect on disease activity (DAI) ([1]; acute and chronic DSS colitis, i.p., different dosing intervals and doses): significantly reduced disease activity; safety and toxicity ([1]; acute and chronic DSS model): did not reveal any abnormalities; myeloperoxidase, mucosal granulocyte infiltration ([1]; data not shown): significant reduction of mucosal granulocyte infiltration; deaths ([1]; doses 1-3 mg/kg body weight): no deaths were observed; human versus rat Gal-2, disease activity ([1]; equivalent doses and treatment regimens): No significant differences were observed; improvement of disease activity ([1]; optimal dose 2×1 mg/kg bodyweight): more than 250%; total daily dose range with largest benefit on disease activity ([1]; per day): 1.5-3 mg/kg bodyweight; effect on disease activity (DAI) ([1]; subcutaneous (sc) administration): only in minor and not significant improvement of disease activity; effects compared with positive controls ([1]; tacrolimus 1 mg/kg, infliximab 10 mg/kg, prednisolone 1 mg/kg): comparable with the potent immunomodulator tacrolimus and more potent as the effects observed for prednisolone and infliximab; histological analyses of intestinal injury and inflammation ([1]; versus control animals): significant reduction of intestinal injury and inflammation; time to induction of apoptosis (PBT): 6 to 12 h; time course of annexin-V staining (PBT; 50 μg/ml, anti-CD3): gradual increase over 72 h; nuclear fragmentation (DAPI staining) (PBT; 25 and 50 μg, data not shown): induce nuclear fragmentation; T cell apoptosis (annexin-V) (PBT; PBT activated by anti-CD3 mAbs): induced a dose-dependent apoptosis; T cell necrosis (PI) (PBT; PBT activated by anti-CD3 mAbs): albeit to a much lesser extent, necrosis; apoptosis of T cells from patients with RA or CD (PBT; anti-CD3, 48 hours, 0, 10, 25, 50 μg/ml): induces apoptosis; percentage of T cell apoptosis relative to galectin-1 (PBT; anti-CD3 activated PBT): higher than that induced by galectin-1; apoptosis in CD4 and CD8 positive T cell populations (PBT; data not shown): comparable in CD4 and CD8 positive T cell populations; T cell apoptosis (annexin-V) (PBT; without cell stimulation, 0, 10, 25, 50, 100 μg/ml): failed to induce T cells apoptosis
